This series deals with T1, EpCAM (endogenous on HuCCT1 cells) (UniProt P16422).
T1 sequence: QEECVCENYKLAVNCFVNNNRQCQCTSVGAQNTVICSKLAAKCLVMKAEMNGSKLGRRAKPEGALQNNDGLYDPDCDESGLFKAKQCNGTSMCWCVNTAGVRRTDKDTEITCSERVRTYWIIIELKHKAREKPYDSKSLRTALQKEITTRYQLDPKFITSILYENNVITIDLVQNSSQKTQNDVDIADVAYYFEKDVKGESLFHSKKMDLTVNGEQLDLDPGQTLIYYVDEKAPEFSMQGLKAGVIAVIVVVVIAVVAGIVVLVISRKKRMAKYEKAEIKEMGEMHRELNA
Nature of the series: flow cytometry on HuCCT1 cells. The conditions noted are these: Whole cells, 30 min on ice, HuCCT1 biotin block in PBS + 0.2% NaN3, 2.5 mM MgCl2, 0.1 mg/mL yeast total RNA (aptamer binding buffer not separately stated) ….

Kd data for two sequences are collected here from paper PMC11548041.

pKd: −log10 of the molar value.

In general, pKd refers to the negative decadic logarithm of the Kd, by convention in mol/L. Take “GACCCACGGAGGTTGCGTCCGTGGGGGAC [PLD02 (B-aptamer)]”: the negative logarithm of the Kd (pKd) (phosphorothioate (marked * in Table 2): G*A*C*CCACGGAGGTTG*CGTCCGTG*GGGG*A*C) was 6.63.

In the case of “CACACTTCTAAGAGGGAACAGACGTCGATCTTTGCGGAACTCCTGCG [PLD01 (B-aptamer)]”, the pKd (phosphorothioate (marked * in Table 2): C*A*C*ACTTCTAAGAGGG*AACAGACGTCGATCTTTGCGGAACT*CCTG*C*G) was 6.75.
